Measurements as given in patent publication US20230220115A1 (BIOMOLECULAR, published 2023).

T1: CD20 Lipoparticles (UniProt P11836 1-297)
T1 sequence (looked up): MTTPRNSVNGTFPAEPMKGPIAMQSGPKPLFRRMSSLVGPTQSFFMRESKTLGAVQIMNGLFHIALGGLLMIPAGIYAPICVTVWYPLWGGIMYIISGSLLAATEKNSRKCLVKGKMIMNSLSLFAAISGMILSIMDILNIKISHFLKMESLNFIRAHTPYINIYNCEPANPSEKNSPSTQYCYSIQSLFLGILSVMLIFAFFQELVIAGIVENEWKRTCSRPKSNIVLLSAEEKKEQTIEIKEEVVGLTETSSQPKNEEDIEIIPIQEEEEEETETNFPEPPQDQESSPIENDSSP

T2: recombinant human Fc gamma receptor CD32b/c (human, UniProt P31994 46-217)
T2 sequence (looked up): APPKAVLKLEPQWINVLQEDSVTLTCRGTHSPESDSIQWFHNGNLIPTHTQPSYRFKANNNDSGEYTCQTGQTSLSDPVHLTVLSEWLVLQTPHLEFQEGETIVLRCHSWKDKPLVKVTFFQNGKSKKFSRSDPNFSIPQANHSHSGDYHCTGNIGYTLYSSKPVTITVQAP

T3: recombinant human Fc gamma receptor CD32a 131R (human, UniProt P12318 36-218)
T3 sequence (looked up): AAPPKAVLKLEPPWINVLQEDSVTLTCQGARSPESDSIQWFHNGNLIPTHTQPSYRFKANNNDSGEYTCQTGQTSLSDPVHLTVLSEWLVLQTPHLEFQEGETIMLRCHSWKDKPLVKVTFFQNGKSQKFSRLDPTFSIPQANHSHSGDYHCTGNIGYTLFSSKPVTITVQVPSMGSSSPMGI

T4: recombinant human Fc gamma receptor CD32a 131H (human, UniProt P12318 36-218)
T4 sequence (looked up): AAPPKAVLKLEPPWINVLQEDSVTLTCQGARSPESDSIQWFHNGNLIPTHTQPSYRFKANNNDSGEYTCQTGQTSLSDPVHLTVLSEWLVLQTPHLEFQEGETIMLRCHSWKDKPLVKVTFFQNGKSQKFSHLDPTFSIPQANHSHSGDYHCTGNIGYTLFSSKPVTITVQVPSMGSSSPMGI

T5: CD19 (UniProt P15391 20-291)
T5 sequence (looked up): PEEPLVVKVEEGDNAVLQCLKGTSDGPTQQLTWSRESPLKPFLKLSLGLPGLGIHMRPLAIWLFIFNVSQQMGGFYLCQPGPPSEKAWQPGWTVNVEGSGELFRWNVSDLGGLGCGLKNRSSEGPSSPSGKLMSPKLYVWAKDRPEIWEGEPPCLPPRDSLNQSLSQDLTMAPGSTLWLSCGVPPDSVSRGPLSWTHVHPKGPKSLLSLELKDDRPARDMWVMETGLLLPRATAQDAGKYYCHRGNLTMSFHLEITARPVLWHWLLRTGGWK

B1: Rc66SIDE (One-arm antibody) (antibody, human IgG1, kappa)
light: QIVLSQSPAILSASPGEKVTMTCRASSSVSYIHWFQQKPGSSPKPWIYATSNLASGVPVRFSGSGSGTSYSLTISRVEAEDAATYYCQQWTSNPPTFGGGTKLEIKRTVAAPSVFIFPPSDEQLKSGTASVVCLLNNFYPREAKVQWKVDNALQSGNSQESVTEQDSKDSTYSLSSTLTLSKADYEKHKVYACEVTHQGLSSPVTKSFNRGEC
heavy: QVQLQQPGAELVKPGASVKMSCKASGYTFTSYNMHWVKQTPGRGLEWIGAIYPGNGDTSYNQKFKGKATLTADKSSSTAYMQLSSLTSEDSAVYYCARSTYYGGDWYFNVWGAGTTVTVSAASTKGPSVFPLAPSSKSTSGGTAALGCLVKDYFPEPVTVSWNSGALTSGVHTFPAVLQSSGLYSLSSVVTVPSSSLGTQTYICNVNHKPSNTKVDKKAEPKSCDKTHTCPPCPAPELLGGPDVFLFPPKPKDTLMISRTPEVTCVVVDVSHEDPEVKFNWYVDGVEVHNAKTKPREEQYNSTYRVVSVLTVLHQDWLNGKEYKCKVSNKALPAPEEKTISKAKGQPREPQVYVLPPSRDELTKNQVSLLCLVKGFYPSDIAVEWESNGQPENNYLTWPPVLDSDGSFFLYSKLTVDKSRWQQGNVFSCSVMHEALHNHYTQKSLSLSPGK
chain: CPPCPAPELLGGPDVFLFPPKPKDTLMISRTPEVTCVVVDVSHEDPEVKFNWYVDGVEVHNAKTKPREEQYNSTYRVVSVLTVLHQDWLNGKEYKCKVSNKALPAPEEKTISKAKGQPREPQVYVYPPSRDELTKNQVSLTCLVKGFYPSDIAVEWESNGQPENNYKTTPPVLDSDGSFALVSKLTVDKSRWQQGNVFSCSVMHEALHNHYTQKSLSLSPGK
B2: Rc66SIDE-P16-Rc66SIDE (antibody, human IgG1, kappa)
light: QIVLSQSPAILSASPGEKVTMTCRASSSVSYIHWFQQKPGSSPKPWIYATSNLASGVPVRFSGSGSGTSYSLTISRVEAEDAATYYCQQWTSNPPTFGGGTKLEIKRTVAAPSVFIFPPSDEQLKSGTASVVCLLNNFYPREAKVQWKVDNALQSGNSQESVTEQDSKDSTYSLSSTLTLSKADYEKHKVYACEVTHQGLSSPVTKSFNRGEC
heavy: QVQLQQPGAELVKPGASVKMSCKASGYTFTSYNMHWVKQTPGRGLEWIGAIYPGNGDTSYNQKFKGKATLTADKSSSTAYMQLSSLTSEDSAVYYCARSTYYGGDWYFNVWGAGTTVTVSAASTKGPSVFPLAPSSKSTSGGTAALGCLVKDYFPEPVTVSWNSGALTSGVHTFPAVLQSSGLYSLSSVVTVPSSSLGTQTYICNVNHKPSNTKVDKKAEPKSCDKTHTCPPCPAPELLGGPDVFLFPPKPKDTLMISRTPEVTCVVVDVSHEDPEVKFNWYVDGVEVHNAKTKPREEQYNSTYRVVSVLTVLHQDWLNGKEYKCKVSNKALPAPEEKTISKAKGQPREPQVYVLPPSRDELTKNQVSLLCLVKGFYPSDIAVEWESNGQPENNYLTWPPVLDSDGSFFLYSKLTVDKSRWQQGNVFSCSVMHEALHNHYTQKSLSLSPGK
chain: CPPCPAPELLGGPDVFLFPPKPKDTLMISRTPEVTCVVVDVSHEDPEVKFNWYVDGVEVHNAKTKPREEQYNSTYRVVSVLTVLHQDWLNGKEYKCKVSNKALPAPEEKTISKAKGQPREPQVYVYPPSRDELTKNQVSLTCLVKGFYPSDIAVEWESNGQPENNYKTTPPVLDSDGSFALVSKLTVDKSRWQQGNVFSCSVMHEALHNHYTQKSLSLSPGK
B3: Rc66SIDE-P4-Rc66SIDE (antibody, human IgG1, kappa)
light: QIVLSQSPAILSASPGEKVTMTCRASSSVSYIHWFQQKPGSSPKPWIYATSNLASGVPVRFSGSGSGTSYSLTISRVEAEDAATYYCQQWTSNPPTFGGGTKLEIKRTVAAPSVFIFPPSDEQLKSGTASVVCLLNNFYPREAKVQWKVDNALQSGNSQESVTEQDSKDSTYSLSSTLTLSKADYEKHKVYACEVTHQGLSSPVTKSFNRGEC
heavy: QVQLQQPGAELVKPGASVKMSCKASGYTFTSYNMHWVKQTPGRGLEWIGAIYPGNGDTSYNQKFKGKATLTADKSSSTAYMQLSSLTSEDSAVYYCARSTYYGGDWYFNVWGAGTTVTVSAASTKGPSVFPLAPSSKSTSGGTAALGCLVKDYFPEPVTVSWNSGALTSGVHTFPAVLQSSGLYSLSSVVTVPSSSLGTQTYICNVNHKPSNTKVDKKAEPKSCDKTHTCPPCPAPELLGGPDVFLFPPKPKDTLMISRTPEVTCVVVDVSHEDPEVKFNWYVDGVEVHNAKTKPREEQYNSTYRVVSVLTVLHQDWLNGKEYKCKVSNKALPAPEEKTISKAKGQPREPQVYVLPPSRDELTKNQVSLLCLVKGFYPSDIAVEWESNGQPENNYLTWPPVLDSDGSFFLYSKLTVDKSRWQQGNVFSCSVMHEALHNHYTQKSLSLSPGK
chain: CPPCPAPELLGGPDVFLFPPKPKDTLMISRTPEVTCVVVDVSHEDPEVKFNWYVDGVEVHNAKTKPREEQYNSTYRVVSVLTVLHQDWLNGKEYKCKVSNKALPAPEEKTISKAKGQPREPQVYVYPPSRDELTKNQVSLTCLVKGFYPSDIAVEWESNGQPENNYKTTPPVLDSDGSFALVSKLTVDKSRWQQGNVFSCSVMHEALHNHYTQKSLSLSPGK
B4: Rc66SIDE-P28-Rc66SIDE (antibody, human IgG1, kappa)
light: QIVLSQSPAILSASPGEKVTMTCRASSSVSYIHWFQQKPGSSPKPWIYATSNLASGVPVRFSGSGSGTSYSLTISRVEAEDAATYYCQQWTSNPPTFGGGTKLEIKRTVAAPSVFIFPPSDEQLKSGTASVVCLLNNFYPREAKVQWKVDNALQSGNSQESVTEQDSKDSTYSLSSTLTLSKADYEKHKVYACEVTHQGLSSPVTKSFNRGEC
heavy: QVQLQQPGAELVKPGASVKMSCKASGYTFTSYNMHWVKQTPGRGLEWIGAIYPGNGDTSYNQKFKGKATLTADKSSSTAYMQLSSLTSEDSAVYYCARSTYYGGDWYFNVWGAGTTVTVSAASTKGPSVFPLAPSSKSTSGGTAALGCLVKDYFPEPVTVSWNSGALTSGVHTFPAVLQSSGLYSLSSVVTVPSSSLGTQTYICNVNHKPSNTKVDKKAEPKSCDKTHTCPPCPAPELLGGPDVFLFPPKPKDTLMISRTPEVTCVVVDVSHEDPEVKFNWYVDGVEVHNAKTKPREEQYNSTYRVVSVLTVLHQDWLNGKEYKCKVSNKALPAPEEKTISKAKGQPREPQVYVLPPSRDELTKNQVSLLCLVKGFYPSDIAVEWESNGQPENNYLTWPPVLDSDGSFFLYSKLTVDKSRWQQGNVFSCSVMHEALHNHYTQKSLSLSPGK
chain: CPPCPAPELLGGPDVFLFPPKPKDTLMISRTPEVTCVVVDVSHEDPEVKFNWYVDGVEVHNAKTKPREEQYNSTYRVVSVLTVLHQDWLNGKEYKCKVSNKALPAPEEKTISKAKGQPREPQVYVYPPSRDELTKNQVSLTCLVKGFYPSDIAVEWESNGQPENNYKTTPPVLDSDGSFALVSKLTVDKSRWQQGNVFSCSVMHEALHNHYTQKSLSLSPGK
B5: B19c66AAC9 (one-arm antibody) (antibody, human IgG1, kappa)
light: not shown
heavy: QVQLQQSGAELVRPGSSVKISCKASGYAFSSYWMNWVKQRPGQGLEWIGQIWPGDGDTNYNGKFKGKATLTADESSSTAYMQLSSLASEDSAVYFCARRETTTVGRYYYAMDYWGQGTTVTVSSASTKGPSVFPLAPSSKSTSGGTAALGCLVKDYFPEPVTVSWNSGALTSGVHTFPAVLQSSGLYSLSSVVTVPSSSLGTQTYICNVNHKPSNTKVDKKVEPKSCDKTHTCPPCPAPKRRGGPSVFLFPPKPKDTLMISRTPEVTCVVVDVSHEDPEVKFNWYVDGVEVHNAKTKPREEQYNSTYRVVSVLTVLHQDWLNGKEYKCKVSNKALPAPIEKTISKAKGQPREPQVYVLPPSRDELTKNQVSLLCLVKGFYPSDIAVEWESNGQPENNYLTWPPVLDSDGSFFLYSKLTVDKSRWQQGNVFSCSVMHEALHNHYTQKSLSLSPGK
chain: CPPCPAPEDEGGPSVFLFPPKPKDTLMISRTPEVTCVVVDVSHEDPEVKFNWYVDGVEVHNAKTKPREEQYNSTYRVVSVLTVLHQDWLNGKEYKCKVSNKALPAPIEKTISKAKGQPREPQVYVYPPSRDELTKNQVSLTCLVKGFYPSDIAVEWESNGQPENNYKTTPPVLDSDGSFALVSKLTVDKSRWQQGNVFSCSVMHEALHNHYTQKSLSLSPGK

How the values were obtained:
[1] = molecular target: T1, CD20 Lipoparticles
[2] = molecular target: recombinant human Fc gamma receptor CD16a 158V (FcRγIIIa) (human, UniProt P08637 17-208)
[3] = molecular target: T2, recombinant human Fc gamma receptor …
[4] = molecular target: recombinant human Fc gamma receptor CD16b (FcRγIIIb) (human, UniProt O75015 17-200)
[5] = molecular target: recombinant human Fc gamma receptor CD16a 158F (FcRγIIIa) (human, UniProt P08637 17-208)
[6] = molecular target: T3, recombinant human Fc gamma receptor …
[7] = molecular target: T4, recombinant human Fc gamma receptor …
[8] = molecular target: recombinant human Fc gamma receptor CD64 (FcRγI) (human, UniProt P12314 16-288)
[9] = molecular target: T5, CD19

Sequence of recombinant human Fc gamma receptor CD16a 158V (FcRγIIIa) (P08637 17-208 F176V limits assumed): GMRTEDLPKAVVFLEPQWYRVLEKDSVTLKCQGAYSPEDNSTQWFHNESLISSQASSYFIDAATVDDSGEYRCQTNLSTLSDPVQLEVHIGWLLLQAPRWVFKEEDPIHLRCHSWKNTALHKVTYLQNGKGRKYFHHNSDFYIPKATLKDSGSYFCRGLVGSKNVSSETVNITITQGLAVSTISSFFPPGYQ
Sequence of recombinant human Fc gamma receptor CD16b (FcRγIIIb) (O75015 17-200 limits assumed): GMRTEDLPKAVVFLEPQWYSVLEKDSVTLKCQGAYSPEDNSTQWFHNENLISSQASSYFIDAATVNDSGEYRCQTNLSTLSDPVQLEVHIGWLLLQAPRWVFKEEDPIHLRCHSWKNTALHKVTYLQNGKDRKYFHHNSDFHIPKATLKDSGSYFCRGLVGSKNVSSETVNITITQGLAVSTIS
Sequence of recombinant human Fc gamma receptor CD64 (FcRγI) (P12314 16-288 limits assumed): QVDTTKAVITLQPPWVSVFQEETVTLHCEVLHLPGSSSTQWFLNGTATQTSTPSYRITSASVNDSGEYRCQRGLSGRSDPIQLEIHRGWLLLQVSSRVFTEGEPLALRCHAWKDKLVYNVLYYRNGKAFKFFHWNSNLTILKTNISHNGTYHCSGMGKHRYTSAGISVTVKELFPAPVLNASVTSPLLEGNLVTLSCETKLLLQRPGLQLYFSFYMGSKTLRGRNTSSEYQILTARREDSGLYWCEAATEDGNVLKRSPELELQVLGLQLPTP
Sequence of recombinant human Fc gamma receptor CD16a 158F (FcRγIIIa) (P08637 17-208 limits assumed): as the sequence (P08637 17-208 F176V limits assumed) above, with V160F counted along it

| Binder | Kd [1] [nM] | Kd [2] [nM] | Kd [3] [nM] | Kd [4] [nM] | Kd [5] [nM] | Kd [6] [nM] | Kd [7] [nM] | Kd [8] [nM] | Kd [9] [nM] |
| --- | --- | --- | --- | --- | --- | --- | --- | --- | --- |
| B1 | 21.4 | 46.2 | 253 | 163 | 76.8 | 202 | 255 |  |  |
| B2 | < 0.001 | 0.257 | 0.556 | < 0.001 | 2.71 | 1.83 | 0.808 | < 0.001 |  |
| B3 | < 0.001 | 1.14 | 3.17 | 1.05 | 3.87 | 4.93 | 2.54 | < 0.001 |  |
| B4 | < 0.001 | 4.98 | 7.28 | 5.64 | 6.62 | 8.11 | 5.42 | 1.14 |  |
| B5 |  |  |  |  |  |  |  |  | 21 |
